According to US20190077860A1 (EISAI R AND D MANAGEMENT, published 2019):

T1: human EphA10 extracellular region-SEAP-His protein (human, UniProt Q5JZY3 34-565)
T1 construct: extracellular domain; also called hEphA10-SEAP-His
T1 sequence (looked up): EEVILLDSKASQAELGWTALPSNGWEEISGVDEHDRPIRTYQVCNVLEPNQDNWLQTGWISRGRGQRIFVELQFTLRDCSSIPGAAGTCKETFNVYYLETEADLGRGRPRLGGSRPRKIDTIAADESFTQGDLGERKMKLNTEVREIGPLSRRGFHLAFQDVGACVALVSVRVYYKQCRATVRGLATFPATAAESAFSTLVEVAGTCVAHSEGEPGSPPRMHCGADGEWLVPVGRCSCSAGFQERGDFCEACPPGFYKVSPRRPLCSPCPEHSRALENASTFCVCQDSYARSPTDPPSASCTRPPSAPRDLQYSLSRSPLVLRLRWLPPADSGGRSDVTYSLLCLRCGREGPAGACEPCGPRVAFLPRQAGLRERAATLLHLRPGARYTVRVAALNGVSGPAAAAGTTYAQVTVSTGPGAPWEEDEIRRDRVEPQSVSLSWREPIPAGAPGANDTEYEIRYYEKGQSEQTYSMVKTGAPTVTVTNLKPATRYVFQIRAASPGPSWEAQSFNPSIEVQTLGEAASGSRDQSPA

T2: human EphB2 extracellular region-SEAP-His protein (human, UniProt P29323 19-543)
T2 construct: extracellular domain; also called hEphB2-SEAP-His
T2 sequence (looked up): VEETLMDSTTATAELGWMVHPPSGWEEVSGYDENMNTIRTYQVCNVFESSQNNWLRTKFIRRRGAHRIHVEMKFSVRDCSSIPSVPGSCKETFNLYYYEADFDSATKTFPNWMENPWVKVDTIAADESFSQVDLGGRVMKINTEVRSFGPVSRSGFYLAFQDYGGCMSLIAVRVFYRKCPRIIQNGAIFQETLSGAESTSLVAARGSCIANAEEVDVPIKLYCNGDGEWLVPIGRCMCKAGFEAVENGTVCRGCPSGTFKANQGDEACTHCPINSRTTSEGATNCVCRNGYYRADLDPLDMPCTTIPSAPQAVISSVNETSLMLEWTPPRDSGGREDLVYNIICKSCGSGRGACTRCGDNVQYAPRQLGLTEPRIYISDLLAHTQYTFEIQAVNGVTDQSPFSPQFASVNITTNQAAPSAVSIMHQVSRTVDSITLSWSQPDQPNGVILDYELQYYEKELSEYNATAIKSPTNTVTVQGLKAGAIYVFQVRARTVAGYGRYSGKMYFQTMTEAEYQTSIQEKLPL

T3: human EphB6 extracellular region-SEAP-His protein (human, UniProt O15197 32-594)
T3 construct: extracellular domain; also called hEphB6-SEAP-His
T3 sequence (looked up): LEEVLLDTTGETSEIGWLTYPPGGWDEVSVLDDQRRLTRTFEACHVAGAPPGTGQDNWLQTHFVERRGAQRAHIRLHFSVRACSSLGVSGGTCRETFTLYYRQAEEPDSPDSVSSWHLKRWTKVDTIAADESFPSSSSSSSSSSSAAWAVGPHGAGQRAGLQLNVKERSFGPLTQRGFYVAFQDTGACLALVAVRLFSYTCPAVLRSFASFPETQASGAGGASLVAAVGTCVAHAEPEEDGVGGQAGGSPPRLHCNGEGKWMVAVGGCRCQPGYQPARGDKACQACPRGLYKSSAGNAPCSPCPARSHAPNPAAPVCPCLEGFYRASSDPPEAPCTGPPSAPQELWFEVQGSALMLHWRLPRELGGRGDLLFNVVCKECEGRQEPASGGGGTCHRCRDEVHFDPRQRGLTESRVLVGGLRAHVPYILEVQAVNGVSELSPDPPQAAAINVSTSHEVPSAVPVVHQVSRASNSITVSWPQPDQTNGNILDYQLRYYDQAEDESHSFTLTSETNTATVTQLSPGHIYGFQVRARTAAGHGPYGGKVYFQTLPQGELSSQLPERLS

T4: human EphA6 extracellular region-SEAP-His protein (human, UniProt Q9UF33 23-550)
T4 construct: extracellular domain; also called hEphA6-SEAP-His
T4 sequence (looked up): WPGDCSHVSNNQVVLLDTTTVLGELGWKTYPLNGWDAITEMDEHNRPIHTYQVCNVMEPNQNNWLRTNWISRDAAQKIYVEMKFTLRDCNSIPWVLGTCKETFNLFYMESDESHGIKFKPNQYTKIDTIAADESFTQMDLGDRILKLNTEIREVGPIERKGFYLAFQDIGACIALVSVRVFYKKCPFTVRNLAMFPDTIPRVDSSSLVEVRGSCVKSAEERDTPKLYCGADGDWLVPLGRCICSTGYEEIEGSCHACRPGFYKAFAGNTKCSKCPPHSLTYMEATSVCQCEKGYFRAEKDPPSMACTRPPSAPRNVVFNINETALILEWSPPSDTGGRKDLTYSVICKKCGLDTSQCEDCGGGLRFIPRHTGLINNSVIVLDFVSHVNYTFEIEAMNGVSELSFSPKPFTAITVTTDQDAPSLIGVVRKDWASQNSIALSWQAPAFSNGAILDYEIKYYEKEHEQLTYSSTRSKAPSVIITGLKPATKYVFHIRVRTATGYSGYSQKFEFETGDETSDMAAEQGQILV


Assays:
Assay in all cases: ELISA
[1] = biological target: T5, human EphA2 extracellular region-SEAP-His protein (human, UniProt P29317 24-537)
T5 construct: extracellular domain; also called hEphA2-SEAP-His

[2] = biological target: T1, human EphA10 extracellular …
[3] = biological target: T2, human EphB2 extracellular …
[4] = biological target: T3, human EphB6 extracellular …
[5] = biological target: T4, human EphA6 extracellular …
SEAP-His = SEAP-His (UniProt P05187 23-511)
Chain of SEAP-His (P05187 23-511): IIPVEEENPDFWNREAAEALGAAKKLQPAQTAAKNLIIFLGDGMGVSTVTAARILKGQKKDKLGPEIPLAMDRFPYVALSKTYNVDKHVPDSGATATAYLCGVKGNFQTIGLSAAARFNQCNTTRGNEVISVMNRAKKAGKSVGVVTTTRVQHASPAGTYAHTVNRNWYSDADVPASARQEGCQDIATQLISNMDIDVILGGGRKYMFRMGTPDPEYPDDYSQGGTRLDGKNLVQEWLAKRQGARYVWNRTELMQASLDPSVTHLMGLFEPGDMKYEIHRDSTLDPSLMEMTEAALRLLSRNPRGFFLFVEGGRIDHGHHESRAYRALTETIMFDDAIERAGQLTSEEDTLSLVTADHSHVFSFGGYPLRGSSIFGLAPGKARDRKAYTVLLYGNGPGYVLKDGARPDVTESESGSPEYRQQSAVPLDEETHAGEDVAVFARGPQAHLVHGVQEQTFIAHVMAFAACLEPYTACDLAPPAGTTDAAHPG

T5 sequence (P29317 24-537): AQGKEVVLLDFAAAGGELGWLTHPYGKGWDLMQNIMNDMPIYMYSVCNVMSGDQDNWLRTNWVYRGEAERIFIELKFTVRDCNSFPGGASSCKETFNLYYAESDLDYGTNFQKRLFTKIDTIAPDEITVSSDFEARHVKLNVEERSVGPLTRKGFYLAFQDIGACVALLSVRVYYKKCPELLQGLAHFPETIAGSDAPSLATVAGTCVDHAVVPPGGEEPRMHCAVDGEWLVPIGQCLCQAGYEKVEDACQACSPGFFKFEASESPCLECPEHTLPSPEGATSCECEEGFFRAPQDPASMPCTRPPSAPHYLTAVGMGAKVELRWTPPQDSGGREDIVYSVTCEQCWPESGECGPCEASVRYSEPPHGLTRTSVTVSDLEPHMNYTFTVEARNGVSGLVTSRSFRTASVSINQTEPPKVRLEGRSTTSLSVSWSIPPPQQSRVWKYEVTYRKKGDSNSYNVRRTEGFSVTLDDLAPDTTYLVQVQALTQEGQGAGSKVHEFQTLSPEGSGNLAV

Row | A450 as % of hEphA4-SEAP-His [1] [%] | A450 as % of hEphA4-SEAP-His [2] [%] | A450 as % of hEphA4-SEAP-His [3] [%] | A450 as % of hEphA4-SEAP-His [4] [%] | A450 as % of hEphA4-SEAP-His [5] [%] | A450 as % of hEphA4-SEAP-His (SEAP-His) [%] | Binder
1 | 5 | 5.1 | 5 | 5.3 | 7 | 5.3 | humanized antibody No. 135 (antibody, human IgG2, human Ig kappa; also called L2-4/HK1) heavy: QVQLVQSGSELKKPGASVKVSCKASGYTFTDYSMHWVRQAPGQGLEWMGWINTETGEPTYADDFKGRFVFSLDTSVSTAYLQISSLKAEDTAVYYCARIPLYYYGSRYWYFDVWGQGTTVTVSSASTKGPSVFPLAPSSRSTSESTAALGCLVKDYFPEPVTVSWNSGALTSGVHTFPAVLQSSGLYSLSSVVTVPSSNFGTQTYTCNVDHKPSNTKVDKTVERKSCVECPPCPAPPAAAPSVFLFPPKPKDTLMISRTPEVTCVVVDVSHEDPEVQFNWYVDGVEVHNAKTKPREEQFNSTFRVVSVLTVVHQDWLNGKEYKCKVSNKGLPAPIEKTISKTKGQPREPQVYTLPPSREEMTKNQVSLTCLVKGFYPSDIAVEWESNGQPENNYKTTPPMLDSDGSFFLYSKLTVDKSRWQQGNVFSCSVMHEALHNHYTQKSLSLSPG light: EIVMTQSPATLSVSPGERATLSCRASENIYRNLAWYQQKPGQSPRLLIYAATNLADGIPARFSGSGSGTEYTLTISSLQSEDFAVYYCQHFWGTPWTFGQGTKVEIKRTVAAPSVFIFPPSDEQLKSGTASVVCLLNNFYPREAKVQWKVDNALQSGNSQESVTEQDSKDSTYSLSSTLTLSKADYEKHKVYACEVTHQGLSSPVTKSFNRGEC
2 | 5.4 | 5.6 | 5.6 | 5.7 | 7.1 | 5.9 | humanized antibody No. 137 (antibody, human IgG2, human Ig kappa; also called L2-4/HK4) heavy: QIQLVQSGSELKKPGASVKVSCKASGYTFTDYSMHWVRQAPGQGLKWMGWINTETGEPTYADDFKGRFVFSLDTSVSTAYLQISSLKAEDTAVYYCARIPLYYYGSRYWYFDVWGQGTTVTVSSASTKGPSVFPLAPSSRSTSESTAALGCLVKDYFPEPVTVSWNSGALTSGVHTFPAVLQSSGLYSLSSVVTVPSSNFGTQTYTCNVDHKPSNTKVDKTVERKSCVECPPCPAPPAAAPSVFLFPPKPKDTLMISRTPEVTCVVVDVSHEDPEVQFNWYVDGVEVHNAKTKPREEQFNSTFRVVSVLTVVHQDWLNGKEYKCKVSNKGLPAPIEKTISKTKGQPREPQVYTLPPSREEMTKNQVSLTCLVKGFYPSDIAVEWESNGQPENNYKTTPPMLDSDGSFFLYSKLTVDKSRWQQGNVFSCSVMHEALHNHYTQKSLSLSPG light: EIVMTQSPATLSVSPGERATLSCRASENIYRNLAWYQQKPGQSPRLLIYAATNLADGIPARFSGSGSGTEYTLTISSLQSEDFAVYYCQHFWGTPWTFGQGTKVEIKRTVAAPSVFIFPPSDEQLKSGTASVVCLLNNFYPREAKVQWKVDNALQSGNSQESVTEQDSKDSTYSLSSTLTLSKADYEKHKVYACEVTHQGLSSPVTKSFNRGEC

Continued, binder first:

Row | Binder | A450 as % of hEphA4-SEAP-His [1] [%] | A450 as % of hEphA4-SEAP-His [2] [%] | A450 as % of hEphA4-SEAP-His [3] [%] | A450 as % of hEphA4-SEAP-His [4] [%] | A450 as % of hEphA4-SEAP-His [5] [%] | A450 as % of hEphA4-SEAP-His (SEAP-His) [%]
3 | humanized antibody No. 94 (antibody, human IgG1, kappa, human Ig kappa; also called L2-4/HA2) heavy: QVQLVQSGSELKKPGASVKVSCKASGYTFTDYSMHWVRQAPGQGLKWMGWINTETGEPTYAQGFTGRFVFSLDTSVSTAYLQISSLKAEDTAVYYCARIPLYYYGSRYWYFDVWGQGTTVTVSSASTKGPSVFPLAPSSKSTSGGTAALGCLVKDYFPEPVTVSWNSGALTSGVHTFPAVLQSSGLYSLSSVVTVPSSSLGTQTYICNVNHKPSNTKVDKRVEPKSCDKTHTCPPCPAPPAAAPSVFLFPPKPKDTLMISRTPEVTCVVVDVSHEDPEVQFNWYVDGVEVHNAKTKPREEQFNSTFRVVSVLTVVHQDWLNGKEYKCKVSNKGLPAPIEKTISKTKGQPREPQVYTLPPSREEMTKNQVSLTCLVKGFYPSDIAVEWESNGQPENNYKTTPPMLDSDGSFFLYSKLTVDKSRWQQGNVFSCSVMHEALHNHYTQKSLSLSPG light: EIVMTQSPATLSVSPGERATLSCRASENIYRNLAWYQQKPGQSPRLLIYAATNLADGIPARFSGSGSGTEYTLTISSLQSEDFAVYYCQHFWGTPWTFGQGTKVEIKRTVAAPSVFIFPPSDEQLKSGTASVVCLLNNFYPREAKVQWKVDNALQSGNSQESVTEQDSKDSTYSLSSTLTLSKADYEKHKVYACEVTHQGLSSPVTKSFNRGEC | 6.4 | 6.4 | 7 | 6.4 | 8.6 | 6.7
4 | humanized antibody No. 136 (antibody, human IgG2, human Ig kappa; also called L2-4/HK2) heavy: QVQLVQSGSELKKPGASVKVSCKASGYTFTDYSMHWVRQAPGQGLKWMGWINTETGEPTYADDFKGRFVFSLDTSVSTAYLQISSLKAEDTAVYYCARIPLYYYGSRYWYFDVWGQGTTVTVSSASTKGPSVFPLAPSSRSTSESTAALGCLVKDYFPEPVTVSWNSGALTSGVHTFPAVLQSSGLYSLSSVVTVPSSNFGTQTYTCNVDHKPSNTKVDKTVERKSCVECPPCPAPPAAAPSVFLFPPKPKDTLMISRTPEVTCVVVDVSHEDPEVQFNWYVDGVEVHNAKTKPREEQFNSTFRVVSVLTVVHQDWLNGKEYKCKVSNKGLPAPIEKTISKTKGQPREPQVYTLPPSREEMTKNQVSLTCLVKGFYPSDIAVEWESNGQPENNYKTTPPMLDSDGSFFLYSKLTVDKSRWQQGNVFSCSVMHEALHNHYTQKSLSLSPG light: EIVMTQSPATLSVSPGERATLSCRASENIYRNLAWYQQKPGQSPRLLIYAATNLADGIPARFSGSGSGTEYTLTISSLQSEDFAVYYCQHFWGTPWTFGQGTKVEIKRTVAAPSVFIFPPSDEQLKSGTASVVCLLNNFYPREAKVQWKVDNALQSGNSQESVTEQDSKDSTYSLSSTLTLSKADYEKHKVYACEVTHQGLSSPVTKSFNRGEC | 5.1 | 5.2 | 5.3 | 5.5 | 7.2 | 5.2
